Data taken from the nanobody polyreactivity screen of Harvey et al. (2022).

Assay: yeast display, Sf9 membrane polyspecificity reagent, FACS + sequencing; frameworks hold sequencing errors
Outline: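 Galactose induction of a Saccharomyces cerevisiae BJ5465 synthetic nanobody display library ran 36–48 hours. The cells were then stained for 1 hour at 4 °C with 10% biotinylated, detergent-solubilized Sf9 membrane reagent, pulled down on streptavidin microbeads and FACS-sorted into low and high (top ~1%) gates on expression and reagent-binding fluorescence. Labels for polyreactivity follow the gate of origin.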

Row | Sequence | polyreactivity (PSR sort gate)
1 | QVQLVESGGGIVQAGGSLRLSCAASGSIFKHYAMGWYRQAPGKERELVATIDYLGGRTYYADSVKGRFTISRDNAKNTVYLQMNSLKPEDTAVYYCAASRYSGKIRGEDYWGQRTQVTVSS | low polyreactivity
2 | QVQLVESGGGLVQAGGSLRLSCAASGSTFFEYTMGWYRQAPGKEREFVADIRGRDGSTSYADSVKGRFTISRDNAKNTVYLQMNSLKPEDTAVYYCAVGVYPSYRGPTFSTRRDYWGQGTQVTVSS | low polyreactivity
3 | QVQLLETGRGLFQEGGSLRLSCAASGGTFGAYVMGWYRQAPGKERELVAAISRSGTRTYYADSVKRRFTISRDNEKNTVYLQMNWLKPEDTAVYYCNAVGYTNRYDDWGQGTQVTVSS | high polyreactivity
4 | QVQLVESGGGLVQAGGSLRLSCAASGIIFPYYAMGWYRPAPGKERELVAAITSSGGSTYYADSVKGRFTISRDNAKNTVYLQMNSLKPEDSAVYYCAAQTWGHGGDSWGQGTQVTVSS | high polyreactivity
5 | QVQLEESGGGLVQAGGSLRLSCAASGRTFRLNVMGWYREAPGKQRELVAAISTRGGDTYYADSVKGRFTISLDNAKNTDYLQMNSLKPEDTALYYCAAEYTYVYDYWGQGTQVTLSS | high polyreactivity
6 | QVQLVESGGGLVQAGGSLRLSCAASGSIFAGNAMGWYRQAPGKERELVAAISRRGGSTYYADSVKGRFTISRDNAKNTVYLQMNSLKPEDTAVYYCNALLRYAYHAAYGYWGQGPQVTVSS | high polyreactivity
7 | QVQLVESGGGLVQAGGSLRLSCAASGFTFISNAMGWYRQAPGKERELVAAISSSGGRTYYADSVKGRFTISRDNAKNTVYLQMNRLKPEDTAVYYCYADRSLLYSRKIEYDYWGQGTQVTVSS | low polyreactivity
8 | QVQLVESGGGLVQAGGILRLSCAASGLTFAKYAMGWYRQAPGKERELVAAITKSSGSTYYADSVKGRFTISRDNAKNTVYFQMNSLKPEDTAVYYCAAGIYAFRRHREEYHYWGQGTQVTVSS | high polyreactivity
9 | QVQLEESGGGLVQAGCSLRLSCAASGRIFHFYAIGRYRQAPGKERELVAVINGGGSTYYADSVKGRFTISRDNAKNTVYLQMNSLKPEVTAVYYCAADVYLSRYEKYGYWGQGTQVTVSS | high polyreactivity
10 | QVQLVETGGGLVQAGGSHRLSCAASVRTLYKNAMGWYRQEPGKERELVAAISVSGGRTYYADSVKGRFTISRDNAKNTVYFQMNSLKPEDTAVYYCATRLYPISKYGYWGQGTQVTVSS | high polyreactivity
11 | QVQLVESGGGLVQAGGSLRLSCAASGIIFRSYAMGWYRQAPGKERELVASITSGGSTNYADSVKGRFTNSRDNAKNTVYLQMNSLKPEDTAVYYCAADYYYTSFGGYDYWGQGTQVTVSS | high polyreactivity
12 | QVQLVESGGGLVQAGGSLRLSCAASGSTLSRYTMGWYRPEPGKERELVAAIRSSGGSTYYADSVKGRFTISRDNAKNTVYLQMNSLKPEDTAVYYCARTQQRTTERVHWIRYYYWGQGTQVTVSS | low polyreactivity
13 | QVQLVESGGGLVQAGGSLRLSCAGSGRIFGGYAMGWYRQAPGTERELVAAISRRGGSTYYADSVKGRFTISRDNAKNTVYLQMNSLKPEDTAVYYCARDYGGVGAPGSAGAYDYWGQGTQVTVSS | high polyreactivity
14 | QVQLVESGGGLVLAGGSLRLSCAASGRSSSSYAMGWYRQAPGKEREFVAAIRSSGGSTSYADSVKGRFTISRDNAKNTVYLQMNSLKPEDTAVYYCAVRKHFVVSYDYWGQGTQVTVSS | high polyreactivity
15 | QVQIVESGGGLVQAGGSLRLSCAASGSIFRYYALGWYRQAPGKERELVAAISSGTITNYADSVKGRFTISRDNAKNTVYLQMNSLKPEDTAVYYCAADTWYLGYPDYWLDYWGQGTQVTVSS | low polyreactivity
16 | QVQLVESGGGLVQEGGSLRLSCAASGSTFGGYAMGWYRQAPGKERELVAAISGSGVRTYYADSVKGRFTISRDNAKYSVYLQMNSLKPEDTAVYYCAKRVRYPGDRYYYWGQGSQVTVSS | high polyreactivity
17 | QVQLVESGGGLVQAGGSLRLSCAASGSIFSIYAMGWYRQAPGKERELVAAISWSGGSTYYADSVKGRFTISRDTAKITVYLQMNSLKPEDTAVYYCAAEYEYMWSQYLTEYGYDYWGQGTQVTVSS | low polyreactivity
